From patent US20250197467A1 (BRIGHT PEAK THERAPEUTICS, published 2025) come the findings set out here.

Changes are numbered by the printed parent chain.

To fix the notation:
T1: IL-18 receptor (IL-18Rαβ) on cells (UniProt Q13478 19-541; O95256 20-599, limits assumed)
T1 sequence (looked up) 1: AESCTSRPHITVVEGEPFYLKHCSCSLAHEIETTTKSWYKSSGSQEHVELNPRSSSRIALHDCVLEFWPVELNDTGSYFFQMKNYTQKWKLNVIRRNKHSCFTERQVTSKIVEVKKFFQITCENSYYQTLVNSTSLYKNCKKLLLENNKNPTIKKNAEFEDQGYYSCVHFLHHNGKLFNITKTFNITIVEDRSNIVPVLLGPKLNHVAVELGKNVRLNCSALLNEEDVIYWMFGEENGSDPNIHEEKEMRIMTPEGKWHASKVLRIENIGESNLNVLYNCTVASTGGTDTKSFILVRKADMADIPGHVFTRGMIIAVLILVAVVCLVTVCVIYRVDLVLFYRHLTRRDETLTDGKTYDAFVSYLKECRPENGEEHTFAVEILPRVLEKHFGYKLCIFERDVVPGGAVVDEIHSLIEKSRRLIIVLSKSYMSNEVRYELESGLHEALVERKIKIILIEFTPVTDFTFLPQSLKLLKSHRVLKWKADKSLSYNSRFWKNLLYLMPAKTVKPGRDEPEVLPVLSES
T1 sequence (looked up) 2: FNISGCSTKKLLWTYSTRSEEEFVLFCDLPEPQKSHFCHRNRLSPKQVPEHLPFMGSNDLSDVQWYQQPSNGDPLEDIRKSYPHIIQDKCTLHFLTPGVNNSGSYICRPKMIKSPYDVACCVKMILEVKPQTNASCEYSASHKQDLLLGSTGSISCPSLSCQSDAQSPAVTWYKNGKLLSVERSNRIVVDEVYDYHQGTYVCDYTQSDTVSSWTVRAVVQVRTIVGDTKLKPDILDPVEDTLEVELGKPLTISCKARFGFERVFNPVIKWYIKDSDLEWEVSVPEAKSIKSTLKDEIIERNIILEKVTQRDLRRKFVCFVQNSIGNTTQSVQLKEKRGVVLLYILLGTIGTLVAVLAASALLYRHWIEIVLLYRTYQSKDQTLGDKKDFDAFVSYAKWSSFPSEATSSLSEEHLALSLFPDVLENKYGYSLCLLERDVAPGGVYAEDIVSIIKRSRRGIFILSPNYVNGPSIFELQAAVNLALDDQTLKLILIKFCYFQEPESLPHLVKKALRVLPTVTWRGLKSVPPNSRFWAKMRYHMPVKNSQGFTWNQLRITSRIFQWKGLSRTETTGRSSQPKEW

B1: C322 (ligand)
chain: MAAEPVEDNSINFVAMKFIDNTLYFIAEDDENLESDSGRVANLVGGSGYFGKLKSKLSIIRNLNDQVLFIDQGNRPLFEDMTDSDARDNAPRTIFIISMYADSQPRGMAVAISVKCEKISTLSAENKIISFKEMNPPDNIKDTKSDIIFFQRSVPGHDNKMQFESSSYEGYFLAAEKERDLFKLILKKEDELGDRSIMFTVQNED
B2: C316 (ligand)
chain: MAAEPVEDNSINFVAMKFIDNTLYFIAEDDENLESDSGRVANLVGYFGKLKSKLSIIRNLNDQVLFIDQGNRPLFEDMTDSDARDNAPRTIFIISMYADSQPRGMAVAISVKCEKISTLSAENKIISFKEMNPPDNIKDTKSDIIFFQRSVPGHDNKMQFESSSYEGYFLAAEKERDLFKLILKKEDELGDRSIMFTVQNED
B3: C316 + Matriptase (ligand)
chain: B2 chain
B4: C317 (ligand)
chain: MAAEPVEDNSINFVAMKFIDNTLYFIAEDDENLESDRGRRVANLVGYFGKLKSKLSIIRNLNDQVLFIDQGNRPLFEDMTDSDARDNAPRTIFIISMYADSQPRGMAVAISVKCEKISTLSAENKIISFKEMNPPDNIKDTKSDIIFFQRSVPGHDNKMQFESSSYEGYFLAAEKERDLFKLILKKEDELGDRSIMFTVQNED
B5: C318 (ligand)
chain: MAAEPVEDNSINFVAMKFIDNTLYFIAEDDENLESDSGRVANYFGKLKSKLSIIRNLNDQVLFIDQGNRPLFEDMTDSDARDNAPRTIFIISMYADSQPRGMAVAISVKCEKISTLSAENKIISFKEMNPPDNIKDTKSDIIFFQRSVPGHDNKMQFESSSYEGYFLAAEKERDLFKLILKKEDELGDRSIMFTVQNED
B6: C318 + Matriptase (ligand)
chain: B5 chain
B7: C320 (ligand)
chain: B5 chain with V40P, A41L, N42G
B8: C319 (ligand)
chain: MAAEPVEDNSINFVAMKFIDNTLYFIAEDDENLESDRGRRVANYFGKLKSKLSIIRNLNDQVLFIDQGNRPLFEDMTDSDARDNAPRTIFIISMYADSQPRGMAVAISVKCEKISTLSAENKIISFKEMNPPDNIKDTKSDIIFFQRSVPGHDNKMQFESSSYEGYFLAAEKERDLFKLILKKEDELGDRSIMFTVQNED
B9: C321 (ligand)
chain: B8 chain with V41P, A42L, N43G
B10: C150 (ligand)
chain: YFGKLESKLSIIRNLNDQVLFIDQGNRPLFEDMADSDARDNAPRTIFIISMYADSQPRGMAVTISVKCEKISTLSAENKIISFKEMNPPDNIKDTKSDIIFFQRSVPGHDNKMQFESSSYEGYFLAAEKERDLFKLILKKEDELGDRSIMFTVQNED
B11: C161 (ligand)
chain: B10 chain with K8R, A34T, A53K, Q103E
B12: C162 (ligand)
chain: B10 chain with K8E, A34T, A53K, Q103R
B13: C168 (ligand)
chain: B10 chain with A34T, A53K, S105K
B14: C153 (ligand)
chain: B10 chain with A34T, D37A
B15: C157 (ligand)
chain: B10 chain with A34T, D132A
B16: C167 (ligand)
chain: B10 chain with A34T, A53K, S105I
B17: C163 (ligand)
chain: B10 chain with A34T, A53K, Q103K
B18: C159 (ligand)
chain: B10 chain with A34T, H109A
B19: C165 (ligand)
chain: B10 chain with A34T, A53K, S55R
B20: C154 (ligand)
chain: B10 chain with E31A, A34T, D37A
B21: C160 (ligand)
chain: B10 chain with A34T, D110A
B22: C164 (ligand)
chain: B10 chain with A34T, A53K, S55H
B23: C155 (ligand)
chain: B10 chain with A34T, D40A
B24: C152 (ligand)
chain: B10 chain with A34T, S36A
B25: C166 (ligand)
chain: B10 chain with A34T, A53K, S55T
B26: C151 (ligand)
chain: B10 chain with A34T, D35A
B27: C158 (ligand)
chain: B10 chain with A34T, G108A
B28: C156 (ligand)
chain: B10 chain with A34T, N41A

For the first test, the target named is T1, IL-18 receptor (IL-18Rαβ) on cells. The test can be described thus: cell-based or functional assay.
Consider B1, for which the “IFNγ release NK-92 assay EC50” value came out at 205 nM.

As to B2, the “IFNγ release NK-92 assay EC50” value is 532 nM. Still for that read-out and setting: as for B3, the figure is 366 nM; as for B4, 526 nM; as for B5, 21.9 nM. On the same count and under the same terms, as for B6, the figure is 22.1 nM.

For the molecule B7, the “IFNγ release NK-92 assay EC50” value turned out to be 158 nM.

B8: the “IFNγ release NK-92 assay EC50” value came out at 21.3 nM. As to B9, the “IFNγ release NK-92 assay EC50” value was 112 nM.

The next test shares this target. The test can be described thus: cell-based or functional assay. This is another data set of the same source.
As for B10, the “HEK-Blue IL-18R reporter EC50” value came to 0.7 pM.

On to B11, for which the “HEK-Blue IL-18R reporter EC50” value amounted to 2.01 pM. Same read-out and setting: as for B12, the figure is 2.3 pM; as for B13, 7.73 pM; as for B14, 14.1 pM. The same measure, in the same setting: as for B15, the figure is 1.95 pM; as for B16, 5.37 pM. Still for that read-out and setting: then B17, with 1.5 pM; and B18, with 19.5 pM; and B19, with 1.91 pM. Take B20: the “HEK-Blue IL-18R reporter EC50” value amounted to 11.9 pM. Still for that read-out and setting: as for B21, the figure is 2.02 pM. B22: the “HEK-Blue IL-18R reporter EC50” value was 3.14 pM. The same measure, in the same setting: then B23, with 0.52 pM; and B24, with 0.25 pM; and B25, with 4.73 pM.

Take B26: the “HEK-Blue IL-18R reporter EC50” value was determined as 13.1 pM. With B27, the “HEK-Blue IL-18R reporter EC50” value turned out to be 15.6 pM.

Consider B28, for which the “HEK-Blue IL-18R reporter EC50” value was 11.7 pM.

A further test shares this target. Description: cell-based or functional assay. The source holds these as a separate data set.
As for B10, the “EC50 (IFNγ stimulation, NK92)” value is 0.015 nM. Consider B11, for which the “EC50 (IFNγ stimulation, NK92)” value was found to be 0.057 nM.

As for B12, the “EC50 (IFNγ stimulation, NK92)” value amounted to 0.061 nM.

For B13, the “EC50 (IFNγ stimulation, NK92)” value was 0.098 nM. Still for that read-out and setting: as for B14, the figure is 0.175 nM; as for B15, 0.056 nM. In the case of B16, the “EC50 (IFNγ stimulation, NK92)” value is 0.103 nM. Same read-out and setting: then B17, with 0.093 nM.

In the case of B18, the “EC50 (IFNγ stimulation, NK92)” value was found to be 0.123 nM. The same measure, in the same setting: as for B19, the figure is 0.176 nM. The same measure, in the same setting: then B20, with 0.062 nM. On the same count and under the same terms, then B21, with 0.028 nM; and B22, with 0.414 nM. Turning to B23, the “EC50 (IFNγ stimulation, NK92)” value came out at 0.067 nM. The same measure, in the same setting: as for B24, the figure is 0.033 nM; as for B25, 0.098 nM. Same read-out and setting: as for B26, the figure is 0.061 nM.

On to B27, for which the “EC50 (IFNγ stimulation, NK92)” value turned out to be 0.073 nM. On the same count and under the same terms, then B28, with 0.558 nM.
